# ± gives the standard deviation of the averaged measurements.
# System: Saccharomyces cerevisiae
# Assay: protein stability index of tFT-peptide fusion (C-terminal peptide) (PSI (0-1 scale)); higher = more stable (slower turnover)
# Conditions: genetic background: wild type; temperature: 30 C
# Procedure: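 Multiplexed protein stability (MPS) profiling in S. cerevisiae. Random 12-aa peptides (tFT-X12 library) are fused to the C-terminus of a sfGFP-mCherry tandem fluorescent timer, after mCherry and a GGGS linker. Cells are FACS-sorted into 8 mCherry/sfGFP bins and deep-sequenced. The protein stability index (PSI) is the read-weighted bin average, scaled from 0 (unstable) to 1 (stable). Only peptides with >10 reads are reported; cells were grown at 30 °C in SC-His with glucose.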
# 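Note: PSI is a weighted mean of sequencing reads over stability bins, variants kept only with over 10 reads, mCherry proximal and sfGFP distal, peptide attached via GGGS linker.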
row,Sequence,protein stability index
1,LLIPPLPSLAPP,0.759 ± 0.052
2,RAPPPPARPALP,0.687 ± 0.028
3,SGCRLGCASVVQ,0.611 ± 0.044
4,RQTNEHNNQNER,0.741 ± 0.082
5,VLNRFENRNSKA,0.7098 ± 0.0035
6,SVYFSLITRPYY,0.667 ± 0.012
7,LCSIESGPICIL,0.676 ± 0.0097
8,APARASPPPPPP,0.633 ± 0.012
9,PCLTCKARSIWL,0.672 ± 0.033
10,FPLGRCPHIPPH,0.664 ± 0.013
11,RCKCGDALTVIH,0.691 ± 0.016
12,SFLSLLLLSSSR,0.7 ± 0.012
13,SPPPSPSPPPPL,0.739 ± 0.049
14,PPGYGISYLLIE,0.66 ± 0.07
15,AGRFSPLPPHFI,0.707 ± 0.035
16,GKGTRGTRRGGK,0.632 ± 0.024
17,PPHLPPPPSPSV,0.6729 ± 0.0053
18,RKCDKVGCDEKA,0.66 ± 0.02
19,LMPPHPLFLSDI,0.724 ± 0.012
20,RRERQNEKMTYH,0.656 ± 0.078
21,PAPPSHLLLPLL,0.768 ± 0.067
22,KVWGPAVPAVPP,0.666 ± 0.065
23,PVSTINLNIQST,0.836 ± 0.087
24,KQKKAETQATQK,0.678 ± 0.038
25,SARECSVRTPHN,0.711 ± 0.061

row,Sequence,protein stability index
1,HQLSQYEGARTL,0.733 ± 0.064
2,DEANFHGCYYGV,0.647 ± 0.041
3,PPSPPPAFPPPA,0.64 ± 0.059
4,VGSSGDEWGRYG,0.7332 ± 0.0046
5,GGAGGTGVRCGT,0.669 ± 0.017
6,KPLDPNRHVIPG,0.652 ± 0.021
7,NYNGVRRYNGFK,0.574 ± 0.052
8,PDCQSIIRLTTG,0.752 ± 0.098
9,ARLPVPPLLCPF,0.71 ± 0.061
10,QFRRKGMITECK,0.7161 ± 0.0029
11,VEEYKKRNNKEG,0.64 ± 0.01
12,HTGTCSVLPHTL,0.663 ± 0.052
13,CAGGLFAVVTPS,0.682 ± 0.043
14,WSQGAIDRLDLS,0.641 ± 0.13
15,GGGGGGKEAVVR,0.649 ± 0.053
16,ASTTSYNITLEC,0.679 ± 0.17
17,GGCEWWAWGRGG,0.727 ± 0.032
18,PFCKTDHMSMTV,0.682 ± 0.039
19,PPPLSQSPPSRR,0.612 ± 0.029
20,ARKGVDFSRVIG,0.6472 ± 0.0059
21,PLHPPATPAATT,0.69 ± 0.025
22,ELSPLSYRNRTA,0.6835 ± 0.001
23,EYRKSVERLRVD,0.687 ± 0.053
24,VGWVLGCRGLGW,0.694 ± 0.067
25,MPHLARVREVVH,0.6178 ± 0.0026

row,Sequence,protein stability index
1,FLLVSLKQCHGR,0.73 ± 0.036
2,KRKRSERRRGKP,0.693 ± 0.015
3,LEWVRPCDLFPC,0.7198 ± 0.005
4,SLVCGFAVGGFW,0.659 ± 0.044
5,LNIPARVSGAVV,0.636 ± 0.017
6,KFHPRPPSRVLR,0.6542 ± 0.0022
7,FLDSFCFFPPLP,0.778 ± 0.014
8,PPPPAPPPAPPP,0.558 ± 0.019
9,VWFGAGSYSFLC,0.5683 ± 0.0016
10,LRSGFVVTLSLS,0.621 ± 0.037
11,DLGWGRWYVVVG,0.678 ± 0.0083
12,FCIRLFLLPLCP,0.5869 ± 0.0055
13,SLGRVSRLSFQH,0.784 ± 0.041
14,LVLVRPGSVSPE,0.731 ± 0.018
15,CSTYPLFPTLPP,0.693 ± 0.049
16,TKIKKKTQEGSR,0.698 ± 0.029
17,PPATPPRPLLPP,0.672 ± 0.091
18,DVGGRGAGGGSA,0.672 ± 0.0076
19,PPSRPPPARREP,0.7 ± 0.022
20,PLALARSPPPSP,0.671 ± 0.02
21,LVGHENIVVRRA,0.72 ± 0.011
22,NKIKKKRTEPQP,0.66522 ± 7.3e-05
23,LFRPGDLVYHSV,0.727 ± 0.026
24,SCHVRPPVPRPS,0.663 ± 0.018
25,WGPCCSTLLFFV,0.423 ± 0.12

row,Sequence,protein stability index
1,SLAGGSSAPSAS,0.673 ± 0.013
2,GKSLLPATYDYY,0.677 ± 0.04
3,GSFLGTSFKSEY,0.666 ± 0.029
4,GSYIPSPKKNKC,0.7086 ± 0.0029
5,LLAHLVIWAPSR,0.634 ± 0.091
6,LILSSGSPAFKT,0.66 ± 0.039
7,GGGVSFWVGVVA,0.656 ± 0.042
8,SGRAALARVSPT,0.694 ± 0.028
9,VGWHFPDGVVDC,0.8 ± 0.12
10,PPGLPLSPCPPP,0.685 ± 0.061
11,GLSSRQHPAPTT,0.693 ± 0.05
12,QCAPVFIAVCRL,0.681 ± 0.14
13,VSNTSAWLLWIS,0.629 ± 0.032
14,EGSLHLHLSLST,0.66 ± 0.029
15,RPPVPSLLPEPT,0.6313 ± 0.0043
16,YSRSSFSIPPPF,0.7239 ± 0.003
17,GFLGVDLVYVVH,0.567 ± 0.033
18,PPPRPPHGPLPY,0.658 ± 0.037
19,REVYLFSSSCRG,0.623 ± 0.027
20,LPPPRSLPPILS,0.656 ± 0.017
21,PCLPCVDRGMRG,0.6663 ± 0.00079
22,MHGVSSGSSLVN,0.63 ± 0.038
23,GDRSKECAMKNG,0.67 ± 0.013
